B1: mRNA-splicing (parent)
chain: AGUUGCUGCUGGGAGCUCCAGCACAGUGAAAUGGACAGAAGGGCAGAGCAA

Variants of: B1
Assay: exon inclusion enrichment index; higher = more inclusion; WT1 exon 5 minigene, HEK293

Variant	exon inclusion enrichment index
C6A U7C C9A U10C G38C A39C	3
C6A U7C C9A U10C G38C A39G	2.65
C6A U7C C9A U10C G38C A39U	0.489
C6A U7C C9A U10C G41C G42A	2.74
C6A U7C C9A U10C G41C G42U	3.52
C6A U7C C9A U10C G41C G42C	3.48
C6A U7C C9A U10C G43U C44U	1.21
C6A U7C C9A U10C G43U C44G	0.567
C6A U7C C9A U10C G43U C44A	0.0402
C6A U7C C9A U10C G46C	2.33
C6A U7C C9A U10C G46U	2.22
C6A U7C C9A U10C G46A	2.98
C6A U7C C9U U10A	0.0495
C6A U7C C9U U10G	0.298
C6A U7C C9U U10C	2.52
C6G U7A	0.00764
C6G U7C	0.331
C6G U7G	0.0143
C6A U7C G8U C9U U10C	2.41
C6A U7C G8C C9A U10C	2.29
C6A U7C G8C C9A U10A	0.587
C6A U7C G8A C9A U10A	0.265
C6A U7C G8A C9A U10C	2.62
C6A U7C C9A U10C U17A C18A	3.1

Variant	exon inclusion enrichment index
C6A U7C C9A U10C U17A C18U	2.9
C6A U7C C9A U10C U17A C18G	2.68
C6G G8C C9U U10C	0.97
C6G U7C G8A U10A	0.0835
C6G U7C G8A U10C	2.05
C6A U7C C9A U10C G38U	1.44
C6A U7C C9A U10C G38C	2.15
C6A U7C C9A U10C G38A	2.2
C6A U7C C9A U10C G41C	3.93
C6A U7C C9A U10C G41A	2.41
C6A U7C C9A U10C G41U	3.1
C6A U7C C9A U10C U32C	4.44
C6A U7C C9A U10C U32G	0.701
C6A U7C C9A U10C U32A	3.06
C6A U7C C9A U10C G48C	2.99
C6A U7C C9A U10C G48U	3.83
C6A U7C C9A U10C G48A	3.5
C6A U7C C9A U10C G42U G43U	3.65
C6A U7C C9A U10C G42U G43A	3.84
C6A U7C C9A U10C G42U G43C	2.05
C6A U7C G8U C9G U10C	1.91
C6A U7C C9A U10C G46C A47U	2.64
C6A U7C C9A U10C G46C A47G	3.46
C6A U7C C9A U10C G46C A47C	2.51

Variant	exon inclusion enrichment index
C6A U7C C9A U10G	0.756
C6A U7C C9A U10C G42A G43C	4.49
C6A U7C C9A U10C G42A G43A	4.69
C6A U7C C9A U10C G42A G43U	4.39
C6A U7C C9A U10C U27G G28C	2.4
C6A U7C C9A U10C U27G G28U	0.0137
C6A U7C C9A U10C U27G G28A	3.19
C6A U7C C9A U10G G11U	2.09
C6A U7C C9A U10G G11A	2.06
C6A U7C C9A U10G G11C	2.72
C6A U7C C9A U10C G34U A35U	1.33
C6A U7C C9A U10C G43A	4.63
C6A U7C C9A U10C G43C	3.07
C6A U7C C9A U10C G43U	2.81
C6A U7C C9A U10C G42C G43A	3.52
C6A U7C C9A U10C G42C G43U	3.6
C6A U7C C9A U10C G42C G43C	3.4
C6A U7C G8A C9G U10C	1.39
C6A U7C C9A U10C G42A	4.25
C6A U7C C9A U10C G42C	4.02
C6A U7C C9A U10C G42U	3.3
C6A U7C C9A U10C U32G G33C	3.23
C6A U7C C9A U10C U32G G33U	1.91
C6A U7C C9A U10C U32G G33A	1.61

Variant	exon inclusion enrichment index
C6G U7G C9A U10A	0.0539
C6G U7G C9A U10C	0.246
C6A U7C C9A U10C U17G	2.68
C6A U7C C9A U10C U17A	3.36
C6A U7C C9A U10C U17C	3.11
C6A U7C G8C C9U U10C	2.28
C6A U7C C9A U10C G46U A47U	3.03
C6A U7C C9A U10C G46U A47G	2.8
C6A U7C C9A U10C G46U A47C	3.45
C6A U7C C9A U10C G46A A47U	2.94
C6A U7C C9A U10C G46A A47G	1.33
C6A U7C C9A U10C G46A A47C	3.66
C6A U7G C9A	0.123
C6A U7C G8U C9A U10C	2.22
C6A U7C G8U C9A U10A	0.176
C6A U7G C9A U10C	0.53
C6A U7G C9A U10A	0.108
C6G C9A U10A	0.229
C6G C9A U10C	1.01
C6A U7C C9A U10C G41A G42A	2.59
C6A U7C C9A U10C G41A G42C	3.64
C6A U7C C9A U10C G41A G42U	2.71
C6A U7C C9A U10C U27C G28A	3.15
C6A U7C C9A U10C U27C G28C	3.85

Variant	exon inclusion enrichment index
C6A U7C C9A U10C U27C G28U	2.92
C6A U7C U10C	3.14
C6A U7C U10G	1.66
C6A U7C U10A	0.41
C6G G8U C9U	0.101
C6A U7G	0.00565
C6A U7C C9A U10C G43A C44G	5.09
C6A U7C C9A U10C G43A C44U	3.22
C6A U7C C9A U10C G43A C44A	4.49
C6A U7C G8C U10C	2.08
C6G U7C C9A U10A	0.988
C6G U7C C9A U10C	3.21
C6G U7G C9A	0.0321
C6A U7C C9G U10C	2.55
C6A U7C C9G U10A	1.39
C6A U7C C9G U10G	0.132
C6A U7C G8A U10A	0.127
C6A U7C G8A U10C	2.3
C6G U7A C9A U10A	0.321
C6G U7A C9A U10C	0.641
C6A U7G G8A C9A U10A	0.0362
C6A U7G G8A C9A U10C	0.734
C6A U7C C9A U10C U27G	2.01
C6A U7C C9A U10C U27A	3.6

Variant	exon inclusion enrichment index
C6A U7C C9A U10C U27C	5.2
C6A U7C C9A U10C U32A G33A	2.07
C6A U7C C9A U10C U32A G33C	3.5
C6A U7C C9A U10C U32A G33U	3.1
C6A U7C C9A U10C G38A A39U	0.332
C6A U7C C9A U10C G38A A39G	2.68
C6A U7C C9A U10C G38A A39C	2.55
C6G U7A G8U C9A	0.349
C6G	0.0263
C6U	0.0511
C6A U7C G8A C9U U10C	2.34
C6A U7C C9A U10C U17C C18G	3.74
C6A U7C C9A U10C U17C C18A	3.17
C6A U7C C9A U10C U17C C18U	3.39
C6A U7C C9A U10C G43C C44U	2.49
C6A U7C C9A U10C G43C C44A	3.8
C6A U7C C9A U10C G43C C44G	4.77
C6A U7C C9A U10C U32C G33A	2.3
C6A U7C C9A U10C U32C G33U	2.94
C6A U7C C9A U10C U32C G33C	4
C6A U7C G8U U10C	2.98
C6A U7C G8C C9G U10C	2.26
C6A U7G G8U C9A U10A	0.0118
C6A U7G G8U C9A U10C	0.407

Variant	exon inclusion enrichment index
C6U U7A	0.0485
C6G U7C U10C	3.22
C6U G8U C9U	0.0925
C6U G8C C9U U10C	1.11
C6U C9A U10A	0.198
C6U C9A U10C	1.46
C6A U7C C9A U10C G38U A39G	1.89
C6A U7C C9A U10C G38U A39U	0.32
C6A U7C C9A U10C G38U A39C	2.79
C6A U7C C9A U10C G41U G42U	2.65
C6A U7C C9A U10C G41U G42A	1.6
C6A U7C C9A U10C G41U G42C	3.58
C6A U7G G8C C9A U10A	0.124
C6A U7G G8C C9A U10C	0.907
C6A U7C C9A U10C U27A G28C	3.18
C6A U7C C9A U10C U27A G28A	2.98
C6A U7C C9A U10C U27A G28U	2.04
C6U U7A C9A U10A	0.0567
C6A U7C C9U	1.42
C6A U7C C9G	1.05
C6A U7C C9A U10C U17G C18U	1.64
C6A U7C C9A U10C U17G C18A	3.29
C6A U7C C9A U10C U17G C18G	2.57

Source: the RNAGym collection of RNA variant scans (doi:10.1101/gr.219683.116)
